Measurements published in patent US20020106772A1 (WASHINGTON STATE UNIVERSITY RESEARCH FOUNDATION, published 2002).

Target: T1, geranyl diphosphate synthase small subunit from Mentha, full-length preprotein encoded by the cDNA insert of … (Mentha piperita (peppermint oil gland …))
T1 construct: also called Mp13.18 protein; 28 kDa protein
T1 chain: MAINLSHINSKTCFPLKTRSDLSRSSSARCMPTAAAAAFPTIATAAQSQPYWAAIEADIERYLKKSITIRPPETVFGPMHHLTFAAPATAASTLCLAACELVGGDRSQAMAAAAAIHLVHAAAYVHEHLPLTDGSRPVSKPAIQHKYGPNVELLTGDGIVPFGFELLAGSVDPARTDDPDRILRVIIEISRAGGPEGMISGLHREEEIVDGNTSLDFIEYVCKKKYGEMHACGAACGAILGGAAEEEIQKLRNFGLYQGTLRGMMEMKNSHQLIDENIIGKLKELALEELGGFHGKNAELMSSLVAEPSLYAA
Assay: co-expression in E. coli, anion-exchange chromatography, activity assay
Experimental: The transformed bacteria were then induced with 1 mM IPTG and allowed to express for 24 h at 15° C. The bacteria were harvested by centrifugation, washed once with Tris buffer (pH 7.0) containing 50 mM KCl, and resuspended in 25 ml sonication buffer (25 mM Hepes, pH 7.2, 10 mM MgCl₂, 10% glycerol, 1 mM DTT, 1 mM EDTA and 1 mM benzamidine) and disrupted by brief sonication (VirSonic, 25% power, two 30 s bursts, 0-4° C.). The sonicate was centrifuged at 12,000 g (30 min), then at 195,000 g (90 min). The supernatant (soluble enzyme fraction) was loaded onto an HR 5/5 column containing Source 15Q anion-exchange separation medium (Pharmacia Biotech) that had been equilibrated with Hepes buffer (25 mM, pH 7.5) containing 10% glycerol, 10 mM MgCl₂, 1 mM DTT and 1 mM benzamidine. A step gradient of KCl (0-85 mM (10 ml); 85 mM (15 ml); 85-600 mM (20 ml)) was applied, and 2 ml fractions were collected and assayed for prenyltransferase activity using [¹⁴C]IPP and DMAPP (or GPP or FPP) as cosubstrates as described above. […]

binding result: binds
B1: geranyl diphosphate synthase large subunit from peppermint (Mentha piperita), full-length preprotein encoded by the cDNA insert of pMp23.10, expressed from … (enzyme)
chain: MSALVNPVAKWPQTIGVKDVHGGRRRRSRSTLFQSHPLRTEMPFSLYFSSPLKAPATFSVSAVYTKEGSEIRDKDPAPSTSPAFDFDGYMLRKAKSVNKALEAAVQMKEPLKIHESMRYSLLAGGKRVRPMLCIAACELVGGDESTAMPAACAVEMIHTMSLMHDDLPCMDNDDLRRGKPTNHMAFGESVAVLAGDALLSFAFEHVAAATKGAPPERIVRVLGELAVSIGSEGLVAGQVVDVCSEGMAEVGLDHLEFIHHHKTAALLQGSVVLGAILGGGKEEEVAKLRKFANCIGLLFQVVDDILDVTKSSKELGKTAGKDLVADKTTYPKLIGVEKSKEFADRLNREAQEQLLHFHPHRAAPLIALANYIAYRDN
notes: also called Mp23.10 protein; pMp23.10 protein
